Test [1] concerns the target T1, peptide 13 of the 45 overlapping peptides of rEgP29 (Echinococcus granulosus).
T1 construct: residues 61-75 of P29 of Echinococcus granulosus, one of 45 overlapping 15-mers (overlap of 10 residues); source: synthetic peptide
T1 chain: NIASKVADAFQKNKE
Briefly: ELISA; peptide scan by indirect ELISA; 45 overlapping 15-mer peptides of rEgP29 coated at 5 ug/mL; purified mAb at 1:5,000. To be noted: both partners purified. (ELISA stands for enzyme-linked immunosorbent assay.)

Test [2] deals with T2, recombinant Echinococcus granulosus P29 (Echinococcus granulosus, UniProt Q9U8G7).
T2 construct: P29, 29 kDa antigen of Echinococcus granulosus, GenBank AAD53328.1; 238 amino acids by the BLAST comparison with E. multilocularis P29 (235/238); band at about 30 kDa on SDS-PAGE; also called rEgP29; rEg.P29
T2 sequence (Q9U8G7 whole entry): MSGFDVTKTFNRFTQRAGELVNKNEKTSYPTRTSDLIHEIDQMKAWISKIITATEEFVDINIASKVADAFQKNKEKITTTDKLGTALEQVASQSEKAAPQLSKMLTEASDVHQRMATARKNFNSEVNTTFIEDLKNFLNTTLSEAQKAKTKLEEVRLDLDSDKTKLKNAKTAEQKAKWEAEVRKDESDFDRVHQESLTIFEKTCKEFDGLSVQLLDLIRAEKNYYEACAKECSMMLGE
As to the kind of experiment: SPR; called SPR by the paper; mAb 4G10F4 (5 ug/mL) captured on the AMC probe, antigen P29 at 500, 250, 125, 62.5, 31.3 and 0 nM in PBST; Octet RH16 (Sartorius), Data Analysis 12.0. Particulars: both partners purified. For orientation: Surface plasmon resonance follows binding to a sensor surface in real time, without labels.

This note sets out measurements from PMC11376570, “Enhancing the therapeutic potential of P29 protein-targeted monoclonal antibodies in the management of alveolar echinococcosis through CDC-mediated mechanisms” (PLOS Pathogens, 2024).

B1: 4G10F4 monoclonal antibody against rEgP29 (antibody, V domains shown)
VH: EVKLEESGPGLVAPSQSLSITCTVSGFSLFSYAVHWVRQPPGKGLEWLGVIWAGGSTDYNSALMSRLSISKDNSKSQVFLKMNSLQTDDTAMYYCASIHYYGYWHFDVWGAGTTVTVSS
VL: DIVMTQSPLSLPVSLGDQASISCRSSQSIVHSNGNTYLEWYLQKPGQSPKLLIYKVSNRFSGVPDRFSGSGSGTDFTLKISRVEAEDLGVYYCFQGSHVPYTFGGGTKLEIK
notes: Mouse IgG1 (subtype by ELISA); also called 4G10F4 mAb; anti-P29 mAb; source: mouse hybridoma (BALB/c splenocytes fused with Sp2/0), culture supernatant; also purified from serum-free supernatant (protein G column)
By Kd is commonly meant the free concentration of one partner at which half of the binding sites on the other are occupied at equilibrium, for simple one-to-one binding. As a reminder, the koff is the rate constant with which the complex falls apart. A word on the kon: it is the rate constant with which the complex forms. On to B1, for which, in test [1], the binding result is “binds”. In test [2], the Kd amounted to 6.29 nM, the koff is 0.00049 s⁻¹ and the kon was 77800 M⁻¹ s⁻¹.
